Biological target: KcsA R64C-SL (potassium ion channel KcsA, R64C mutant, spin-labelled with MTSL) (UniProt P0A334)
Assay: PELDOR

stoichiometry N: 4
Substance: KcsA R64C-SL (potassium ion channel KcsA, R64C mutant, spin-labelled with MTSL) (from UniProt P0A334 1-160) (natural protein)

— PMC2779547
